# Values of other authors in patent publication US20150182632A1, “ANTI-INTERLEUKIN-1 (IL-1) ANTIBODY USED AS A TARGETING AGENT TO TREAT ARTHRITIS AND OTHER DISEASES” (priority 2012, published 2015).
# Target: T1, IL-1 (Homo sapiens, UniProt P01584)
# T1 construct: Patients with arthritis and other inflammatory diseases produce IL-1 which is present in the blood; host or cells: endogenous IL-1 of RA patients (in vivo)
# Details: several intravenous injections
substance,measurement,value
ACZ885: anti-IL-1 monoclonal antibody,clinical response of RA patients,clinical improvement
